Laboratory results as given in article PMC10197132.

B1: FAM-23DR DNA-RNA hybrid (DNA:RNA)
DNA: CGGTGTGGTCGCTGTAATCAGAG
RNA: CUCUGAUUACAGCGACCACACCG

How the values were obtained:
[1] = molecular target: G3-SEAP (human-secreted embryonic alkaline phosphatase with an N-terminal Gly3 sequence) (human); experiment: SEC-MALS
G3-SEAP = G3-SEAP (human, UniProt P05187); experiment: fluorescence polarization

| Molecule | stoichiometry N [1] | binding result (G3-SEAP) |
| --- | --- | --- |
| G3-SEAP (human-secreted embryonic alkaline phosphatase with an N-terminal Gly3 sequence) (enzyme) | 2 | – |
| B1 | – | no binding |
